# Source: the supplement of paper PMC10065799, “High-throughput profiling of sequence recognition by tyrosine kinases and SH2 domains using bacterial peptide display” (eLife, 2023)
# Molecular target: EPHB2 (UniProt P29323)
# Assay: phosphorylation enrichment, bacterial display (enrichment ratio); higher = better substrate or ligand; peptides without Tyr show the background
# 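Also: 11-residue human phosphosite peptides and single-mutation variants displayed on the E. coli surface, counted by deep sequencing, each peptide's frequency after selection divided by its frequency in the unselected input library; frequency after pTyr selection over input frequency; kinase dosed for 20-30% of maximal phosphorylation in three min.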
# Sequence of EPHB2 (P29323 whole entry, looked up): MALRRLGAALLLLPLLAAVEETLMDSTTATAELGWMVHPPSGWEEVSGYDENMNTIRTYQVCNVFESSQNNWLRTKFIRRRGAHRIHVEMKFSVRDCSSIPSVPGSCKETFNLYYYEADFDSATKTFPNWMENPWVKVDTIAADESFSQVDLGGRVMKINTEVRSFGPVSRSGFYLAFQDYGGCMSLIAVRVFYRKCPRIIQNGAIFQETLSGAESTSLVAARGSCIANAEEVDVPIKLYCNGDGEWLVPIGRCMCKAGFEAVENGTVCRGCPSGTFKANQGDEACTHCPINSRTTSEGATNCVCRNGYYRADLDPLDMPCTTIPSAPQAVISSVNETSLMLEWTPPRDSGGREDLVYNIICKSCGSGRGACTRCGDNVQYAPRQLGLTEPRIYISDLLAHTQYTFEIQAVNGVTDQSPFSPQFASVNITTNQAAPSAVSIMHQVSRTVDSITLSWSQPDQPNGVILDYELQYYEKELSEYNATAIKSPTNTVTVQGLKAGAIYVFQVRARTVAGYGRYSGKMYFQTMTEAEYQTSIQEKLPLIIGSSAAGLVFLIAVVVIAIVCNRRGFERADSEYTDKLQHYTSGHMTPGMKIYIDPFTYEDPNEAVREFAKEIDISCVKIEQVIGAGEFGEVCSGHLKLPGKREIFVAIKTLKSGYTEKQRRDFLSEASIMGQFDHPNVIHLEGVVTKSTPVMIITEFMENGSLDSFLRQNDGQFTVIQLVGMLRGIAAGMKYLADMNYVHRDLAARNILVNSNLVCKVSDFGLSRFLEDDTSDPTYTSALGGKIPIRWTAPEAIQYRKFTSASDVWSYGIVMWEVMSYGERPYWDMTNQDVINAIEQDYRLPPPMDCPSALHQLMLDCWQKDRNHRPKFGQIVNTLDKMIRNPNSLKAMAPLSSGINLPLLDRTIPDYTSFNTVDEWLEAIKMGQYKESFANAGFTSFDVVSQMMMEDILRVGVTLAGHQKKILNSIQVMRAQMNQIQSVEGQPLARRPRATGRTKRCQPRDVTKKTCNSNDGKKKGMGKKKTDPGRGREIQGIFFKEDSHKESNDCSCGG
row,Sequence,phosphorylation enrichment
1,GFPVHYTDVSN [DNMT3B_Y815],0.485
2,RRGTRYMSSRP [RPL21_Y13_F15S],0.499
3,VIECSYTSADG [DHCR7_Y382],0.538
4,SARFHYLMAEK [LDHB_Y173_R172H],0.403
5,EEESCYILHSS [PATJ_Y783],0.625
6,QSKGIYFVQLE [MGAT4B_Y262_YF],2.44
7,PMQMPYDSRWE [PDGFRA_Y582_L580M],0.801
8,FQEKGYNKELR [CHRND_Y38],0.268
9,KAIMTYVPSFY [ACTN4_Y260_S262P],0.63
10,KVNKIYYPDFI [LIG3_Y767],0.45
11,FSDPSYVKQME [CDC5L_Y464_YF],0.581
12,ADFPDCKFRPR [SOX11_Y116_Y116C_YF],0.409
13,ETPSEYLEIVR [TMEM130_Y412],0.608
14,FPLELYERVRM [PRKCG_Y312_YF],0.982
15,FDFKKYGKGLR [ZNF445_Y433_YF],0.436
16,WISNRSLDFSS [PRPH2_Y184_Y184S],0.469
17,TFWKKYRTFWK [CCDC70_Y125],0.308

row,Sequence,phosphorylation enrichment
1,LQTYHYHGHSM [PDHA1_Y289_R288H],0.636
2,DVMDFYKTLRG [NR3C1_Y30],0.423
3,AEKPKYQINNI [TJP1_Y1602],0.802
4,HSFQCYGRNEA [ENTPD3_Y262],1.04
5,SSVAGYACLAF [MVD_Y131_A128V_YF],0.537
6,MTYMFYRENLR [NLRP14_Y443_V441M],1
7,SPYAVYLFFTF [RPGRIP1_Y826_R827L],0.487
8,TDGIAYEFRVT,0.582
9,LSRDVYEEDSF [RET_Y900_YF],0.908
10,TVLEHYRRTHC [MYBPC3_Y1119],0.681
11,CTTIHKNYMCN [TP53_Y234_Y234K],0.503
12,NNDLCYWVPEL [IARS1_Y434],5.52
13,SNNYIYTTLGV [FAM83B_Y639_K640T],4.29
14,QLLIKYPPEEV [ZZZ3_Y670],0.816
15,KFMVGYEMIAQ [GALT_Y339_L342I],0.569
16,ALRHYYKLNII [ETV6_Y402],0.533

# Molecular target: FGFR1 (UniProt P11362)
# Assay: as above
# Sequence of FGFR1 (P11362 whole entry, looked up): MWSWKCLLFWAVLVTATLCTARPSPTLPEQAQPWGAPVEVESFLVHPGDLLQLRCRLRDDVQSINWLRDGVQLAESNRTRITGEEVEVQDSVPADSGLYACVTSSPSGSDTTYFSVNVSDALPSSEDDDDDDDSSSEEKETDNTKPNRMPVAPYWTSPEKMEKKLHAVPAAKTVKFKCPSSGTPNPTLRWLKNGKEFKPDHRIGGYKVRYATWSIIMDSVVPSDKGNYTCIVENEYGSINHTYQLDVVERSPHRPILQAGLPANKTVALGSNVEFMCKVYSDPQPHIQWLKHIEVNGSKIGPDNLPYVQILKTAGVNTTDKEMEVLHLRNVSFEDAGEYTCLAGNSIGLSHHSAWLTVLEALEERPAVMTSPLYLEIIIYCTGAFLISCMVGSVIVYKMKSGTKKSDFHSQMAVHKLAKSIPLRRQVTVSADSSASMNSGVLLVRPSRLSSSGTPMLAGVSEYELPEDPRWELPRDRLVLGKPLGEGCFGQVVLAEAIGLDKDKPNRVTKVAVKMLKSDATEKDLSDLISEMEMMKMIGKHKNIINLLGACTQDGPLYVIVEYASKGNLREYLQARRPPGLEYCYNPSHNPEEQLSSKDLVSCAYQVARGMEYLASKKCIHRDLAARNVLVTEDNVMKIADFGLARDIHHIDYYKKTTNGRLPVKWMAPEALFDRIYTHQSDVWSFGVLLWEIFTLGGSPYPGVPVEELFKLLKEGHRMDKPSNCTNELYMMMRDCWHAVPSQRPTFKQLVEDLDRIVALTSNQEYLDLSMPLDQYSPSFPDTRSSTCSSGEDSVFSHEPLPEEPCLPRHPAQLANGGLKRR
row,Sequence,phosphorylation enrichment
1,GFPVHYTDVSN [DNMT3B_Y815],0.439
2,RRGTRYMSSRP [RPL21_Y13_F15S],0.551
3,VIECSYTSADG [DHCR7_Y382],0.544
4,SARFHYLMAEK [LDHB_Y173_R172H],0.445
5,EEESCYILHSS [PATJ_Y783],0.621
6,QSKGIYFVQLE [MGAT4B_Y262_YF],1.09
7,PMQMPYDSRWE [PDGFRA_Y582_L580M],0.865
8,FQEKGYNKELR [CHRND_Y38],0.471
9,KAIMTYVPSFY [ACTN4_Y260_S262P],0.378
10,KVNKIYYPDFI [LIG3_Y767],4.13
11,FSDPSYVKQME [CDC5L_Y464_YF],0.558
12,ADFPDCKFRPR [SOX11_Y116_Y116C_YF],0.532
13,ETPSEYLEIVR [TMEM130_Y412],0.645
14,FPLELYERVRM [PRKCG_Y312_YF],0.988
15,FDFKKYGKGLR [ZNF445_Y433_YF],0.575
16,WISNRSLDFSS [PRPH2_Y184_Y184S],0.788
17,TFWKKYRTFWK [CCDC70_Y125],0.403

row,Sequence,phosphorylation enrichment
1,LQTYHYHGHSM [PDHA1_Y289_R288H],1.16
2,DVMDFYKTLRG [NR3C1_Y30],0.393
3,AEKPKYQINNI [TJP1_Y1602],0.383
4,HSFQCYGRNEA [ENTPD3_Y262],0.761
5,SSVAGYACLAF [MVD_Y131_A128V_YF],0.516
6,MTYMFYRENLR [NLRP14_Y443_V441M],0.628
7,SPYAVYLFFTF [RPGRIP1_Y826_R827L],0.446
8,TDGIAYEFRVT,0.528
9,LSRDVYEEDSF [RET_Y900_YF],0.813
10,TVLEHYRRTHC [MYBPC3_Y1119],0.438
11,CTTIHKNYMCN [TP53_Y234_Y234K],0.499
12,NNDLCYWVPEL [IARS1_Y434],5.92
13,SNNYIYTTLGV [FAM83B_Y639_K640T],6.21
14,QLLIKYPPEEV [ZZZ3_Y670],0.811
15,KFMVGYEMIAQ [GALT_Y339_L342I],0.492
16,ALRHYYKLNII [ETV6_Y402],1.3
